Reference: patent publication US20210389324

Assays:
[1] = system: CFP-PROS1-YFP
[2] = system: CFP-MYH6/7-YFP (23-residue)
[3] = system: CFP-MYH6/7-YFP (16-residue)
[4] = system: CFP-FOXP3-YFP (25-residue)
[5] = system: CFP-FOXP3-YFP (18-residue)
[6] = system: CFP-TRIM14-YFP 22-residue substrate
[7] = system: CFP-SFVp12-YFP 19:6
[8] = system: CFP-SFVp12-YFP 11:6
[9] = system: CFP-V34-YFP
[10] = system: CFP-TRIM14-YFP 19-residue substrate
[11] = system: CFP-VEEVnsP23-YFP

| Substance | cleavage of CFP-YFP substrate [1] | cleavage of CFP-YFP substrate [2] | cleavage of CFP-YFP substrate [3] | cleavage of CFP-YFP substrate [4] | cleavage of CFP-YFP substrate [5] | Km [6] [µM] | Vmax [6] [U/mg] | cleavage of CFP-YFP substrate [6] | cleavage of CFP-YFP substrate [7] | cleavage of CFP-YFP substrate [8] | Km [9] [µM] | Vmax [9] [U/mg] | cleavage of CFP-YFP substrate [9] | Km [10] [µM] | Vmax [10] [U/mg] | cleavage of CFP-YFP substrate [10] | cleavage of CFP-YFP substrate [11] |
| --- | --- | --- | --- | --- | --- | --- | --- | --- | --- | --- | --- | --- | --- | --- | --- | --- | --- |
| Recombinant MERS-CoV-2 Papain-like Protease | SARS-CoV-2, MERS PLpro | SARS-CoV-2, MERS PLpro | SARS-CoV-2, MERS PLpro | SARS-CoV-2, MERS PLpro | SARS-CoV-2, MERS PLpro |  |  |  |  |  |  |  |  |  |  |  |  |
| Recombinant VEEV nsP2-thioredoxin Protease containing residues 457-792 |  |  |  |  |  | 26 | 0.008 | VEEV nsP2 cysteine protease | CHIKV and VEEV nsP2 cysteine protease | CHIKV and VEEV nsP2 cysteine protease | 21 | 0.089 | VEEV nsP2 cysteine protease | 50 | 0.012 | VEEV nsP2 cysteine protease | VEEV nsP2 cysteine protease |
